Assay [1] concerns the target T1, phospholipase D2, wild type (PLD2^wt) (Homo sapiens, UniProt O14939 1-933).
T1 construct: also called recombinant PLD2; hPLD2
The experiment in a line: co-IP with anti-HA antibody of HA-raptor constructs with PLD2^wt (FIG. 11). Here is the method:
(§1) After harvesting COS7 cells, total extracts were prepared by brief sonication in ice-cold lysis buffer (40 mM HEPES pH7.5, 120 mM NaCl, 1 mM EDTA, 10 mM pyrophosphate, 10 mM glycerophosphate, 50 mM NaF, 1.5 mM Na₃VO₄, 0.5% CHAPS, 1 mM PMSF, protease inhibitor cocktails). Clarified extracts were mixed with 2 μg of the respective antibodies. Then protein A-Sepharose beads were added to isolate the antibody complex. After four washings with lysis buffer, the final immunoprecipitates were washed once with wash buffer (50 mM HEPES pH7.5, 150 mM NaCl), and then subjected to SDS-PAGE using Hyperfilm (Amersham Pharmacia Biotech), nitrocellulose membranes (Watmann), Power supply (Amersham Pharmacia Biotech), Electrophoretic Transfer unit (Hoefer Scientific Instruments), and ECL™ (Amersham Pharmacia Biotech).

A further assay has as its target myc-mTOR^wt (human, UniProt P42345 1-2549). The assay can be described thus: co-IP of myc-mTOR^wt with PLD2 fragments (FIG. 5). Here is the method: as §1

B1: HA-raptor^1020-1335 (other)
chain: NRNPGVPSVVKFHPFTPCIAVADKDSICFWDWEKGEKLDYFHNGNPRYTRVTAMEYLNGQDCSLLLTATDDGAIRVWKNFADLEKNPEMVTAWQGLSDMLPTTRGAGMVVDWEQETGLLMSSGDVRIVRIWDTDREMKVQDIPTGADSCVTSLSCDSHRSLIVAGLGDGSIRVYDRRMALSECRVMTYREHTAWVVKASLQKRPDGHIVSVSVNGDVRIFDPRMPESVNVLQIVKGLTALDIHPQADLIACGSVNQFTAIYNSSGELINNIKYYDGFMGQRVGAISCLAFHPHWPHLAVGSNDYYISVYSVEKRVR
notes: also called WD40 repeat region of raptor; not shown: HA tag
B1: the binding result in assay [1] is “binds”.

B2: PLD2^ΔN308 (enzyme)
chain: LAQGPGRDFLQLHRHDSYAPPRPGTLARWFVNGAGYFAAVADAILRAQEEIFITDWWLSPEVYLKRPAHSDDWRLDIMLKRKAEEGVRVSILLFKEVELALGINSGYSKRALMLLHPNIKVMRHPDQVTLWAHHEKLLVVDQVVAFLGGLDLAYGRWDDLHYRLTDLGDSSESAASQPPTPRPDSPATPDLSHNQFFWLGKDYSNLITKDWVQLDRPFEDFIDRETTPRMPWRDVGVVVHGLPARDLARHFIQRWNFTKTTKAKYKTPIYPYLLPKSTSTANQLPFTLPGGQCTTVQVLRSVDRWSAGTLENSILNAYLHTIRESQHFLYIENQFFISCSDGRTVLNKVGDEIVDRILKAHKQGWCYRVYVLLPLLPGFEGDISTGGGNSIQAILHFTYRTLCRGEYSILHRLKAAMGTAWRDYISICGLRTHGELGGHPVSELIYIHSKVLIADDRTVIIGSANINDRSLLGKRDSELAVLIEDTETEPSLMNGAEYQAGRFALSLRKHCFGVILGANTRPDLDLRDPICDDFFQLWQDMAESNANIYEQIFRCLPSNATRSLRTLREYVAVEPLATVSPPLARSELTQVQGHLVHFPLKFLEDESLLPPLGSKEGMIPLEVWT
notes: N-terminal 308 residues deleted, by analogy with ΔN184; also called ΔN308 PLD2
Take B2: in the assay with myc-mTOR^wt, the binding result is “no binding”.

Source of the values: patent US20100184636A1 (POSTECH ACADEMY INDUSTRY FOUNDATION, published 2010).
